Test results taken from patent US20130210023, “NUCLEIC ACID […] AGAINST PLASMODIUM LACTATE DEHYDROGENASE AND HISTIDINE-RICH PROTEIN II AND USES […] FOR MALARIA DIAGNOSIS” (THE UNIVERSITY OF HONG KONG, published 2013).

Assays:
[1] = biological target: T1, Plasmodium falciparum lactate dehydrogenase (PfLDH) (Plasmodium falciparum 3D7, UniProt Q76NM3 Q76NM3:1-316); assay: ITC; nanomolar Kd, value only in figure; N=0.152; 25 mM Tris-HCl pH 7.5, 0.1 M NaCl, 20 mM imidazole, 25 C; conditions: chain copies: 4 stated (tetramer in crystal)
[2] = biological target: T1, Plasmodium falciparum lactate …; assay: ITC; nanomolar Kd, value only in figure; N=0.451; 25 mM Tris-HCl pH 7.5, 0.1 M NaCl, 20 mM imidazole, 25 C; conditions: chain copies: 4 stated (tetramer in crystal)
[3] = biological target: T1, Plasmodium falciparum lactate …; assay: ITC; nanomolar Kd, value only in figure; N=0.177; 25 mM Tris-HCl pH 7.5, 0.1 M NaCl, 20 mM imidazole, 25 C; conditions: chain copies: 4 stated (tetramer in crystal)
[4] = biological target: T1, Plasmodium falciparum lactate …; assay: ITC; nanomolar, similar Kd and stoichiometry to 2009s; same buffer, 25 C; conditions: chain copies: 4 stated (tetramer in crystal)
[5] = biological target: human lactate dehydrogenase A1 (hLDHA1) (Homo sapiens, UniProt P00338 P00338:1-332); assay: ITC; no binding by ITC, EMSA and SPR; no AuNP color change
[6] = biological target: human lactate dehydrogenase B (hLDHB) (Homo sapiens, UniProt P07195 P07195:2-334); assay: as above; conditions: tags: His tag (pET-28a, HisTrap purified); chain copies: 4; last 8 nt disordered; not G4
[7] = biological target: T1, Plasmodium falciparum lactate …; assay: structure; crystal structure, two aptamers per PfLDH tetramer; contacts residues 102-108, Asp53, Ile54 (A) and Lys62, His250 (B); conditions: chain copies: 4 stated (tetramer in crystal); last 8 nt disordered; not G4

Sequence of human lactate dehydrogenase B (hLDHB) (P07195 2-334, one chain of several): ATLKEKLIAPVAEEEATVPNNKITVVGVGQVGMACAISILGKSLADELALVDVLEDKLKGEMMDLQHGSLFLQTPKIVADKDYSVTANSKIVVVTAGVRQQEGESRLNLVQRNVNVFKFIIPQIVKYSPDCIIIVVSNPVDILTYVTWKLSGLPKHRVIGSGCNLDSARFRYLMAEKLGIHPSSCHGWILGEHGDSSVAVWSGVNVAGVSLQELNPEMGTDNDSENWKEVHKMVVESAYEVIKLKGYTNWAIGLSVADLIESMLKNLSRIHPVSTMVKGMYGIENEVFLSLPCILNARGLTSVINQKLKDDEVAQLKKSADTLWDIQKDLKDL

ACGCGAGCAGGTGGTAGAATCATAATGGCCTGATC (ssDNA) [2004s]
binding result [1]: binds

TAGGTGGCCAGAAGGTAGAACCATAGTGGTCTGGTA (ssDNA) [2009s]
binding result [2]: binds

AGAATGGCGGGAGAGCCTTAGCGACCATTCGTAC (ssDNA) [2021s]
binding result [3]: binds

B1: 2009 (2009s with 18-mer flanks on both ends) (ssDNA)
DNA: CGTACGGTCGACGCTAGCTAGGTGGCCAGAAGGTAGAACCATAGTGGTCTGGTACACGTGGAGCTCGGATCC
binding result [4]: binds

CTGGGCGGTAGAACCATAGTGACCCAGCCGTCTAC (ssDNA) [2008s]
binding result [5]: no binding
binding result [6]: no binding
binding result [7]: binds
